One experiment concerns the target VRC01GL Fab (human). Briefly: BLI; Fab immobilised on anti-human Fab-CH1 (FAB2G) biosensors; 426c core in solution; Octet Red 96, 29°C, 500 r.p.m.; kinetic buffer (1X PBS, 0.01% BSA, 0.02% Tween 20, 0.005% NaN3); 1:1 binding model; relative apparent affinities.
In experiment [1] the target is VRC01GL IgG (inferred germline precursor of the VRC01 antibody). The experiment is described as follows: BLI. The settings on record: 426c core (293F-expressed) injected at 0.5, 1, 2.5, 4, 5, 10, 20, 40, 80, 160 µM.
Experiment [2] deals with VRC01GL IgG (inferred germline precursor of the VRC01 antibody) (human). The experiment is described as follows: BLI; IgG immobilised on anti-AHC biosensors (20 µg/ml in PBS); DS-SOSIP trimer or 426c core in solution, dilution series; Octet Red 96, 29°C, 500 r.p.m.; kinetic buffer (1X PBS, 0.01% BSA, 0.02% Tween 20, 0.005% NaN3); 1:1 binding model; relative apparent affinities. On the technique in general: BLI is a label-free optical method that tracks binding on a fibre tip over time.

The target of another experiment is 12A21GL IgG (human). The experiment is described as above.

The record followed here is publication PMC6237438.

In the case of “426c core (wild-type NLGSs), HEK293F-expressed (domain or fragment)”, the Kd with VRC01GL Fab (human) was found to be 11000 nM.

In turn, “426c core (wild-type NLGSs), HEK293F-expressed S278A; T465A” yielded a Kd in experiment [1] of 8900 nM. On to “EndoH-treated 426c core (HEK293 GnTI-/--expressed) (domain or fragment)”, for which the Kd in experiment [2] was found to be 245 nM. In the case of “426c S278T core, HEK293 GnTI-/--expressed (domain or fragment)”, the fold change of KD against the 426c core (with 12A21GL IgG (human); in experiment [2]) was 10 fold throughout. “426c core (wild-type NLGSs), HEK293F-expressed S278A; T462A” showed a Kd in experiment [1] of 2500 nM. As to “426c DS-SOSIP D3 trimer (from UniProt Q2N0S6 1-860) (complex)”, the Kd in experiment [2] was determined as 43 nM. Turning to “426c core (wild-type NLGSs), HEK293 GnTI-/--expressed (domain or fragment)”, the Kd in experiment [2] came out at 2000 nM; with VRC01GL Fab (human) it was 15000 nM. As to “426c core (wild-type NLGSs), HEK293F-expressed S278A”, the Kd in experiment [1] was determined as 1900 nM. Regarding “426c S278A core, HEK293 GnTI-/--expressed (domain or fragment)”, the Kd in experiment [2] stood at 204 nM.
